The record followed here is patent US20180291110A1 (Hoffmann-La Roche, published 2018).

Substitutions are numbered along the chain they refer to.

B1: 2/99 VH2/VL2 (antibody, V domains shown)
VH: EVQLVETGGGLIQPGGSLRLSCAASGFSLSSYAMSWVRQAPGKGLEWVGYIWSGGSTDYADSVKGRFTISRDNSKNTLYLQMNSLRAEDTAVYYCARRYGTSYPDYGDANGFDPWGQGTLVTVSS
VL: DIQMTQSPSSLSASVGDRVTITCRASQSISSYLNWYQQKPGKAPKLLIYRASTLASGVPSRFSGSGSGTDFTLTISSLQPEDFATYYCQQSYSSSNVDNTFGGGTKVEIK
B2: 2/99 VH16/VL2 (antibody, V domains shown)
VH: QQLQESGPGLVKPSETLSLTCTVSGFSLSSYAMSWVRQPPGKGLEWIGYIWSGGSTDYNPSLKSRVTISVDTSKNQVSLKLSSVTAADTAVYYCARRYGTSYPDYGDANGFDPWGPGTLVTVSS
VL: B1 VL
B3: 2/99 VH18/VL2 (antibody, V domains shown)
VH: QVQLQESGPGLVKPSQTLSLTCTVSGFSLSSYAMSWIRQHPGKGLEWIGYIWSGGSTDYAPSLKSRVTISVDTSKNQFSLKLSSVTAADTAVYYCARRYGTSYPDYGDANGFDPWGQGTLVTVSS
VL: B1 VL
B4: 2/99 VH6/VL2 (antibody, V domains shown)
VH: QQLVETGGGLIQPGGSLRLSCAASGFSLSSYAMSWVRQAPGKGLEWIGYIWSGGSTDYADSVKGRFTISRDNSKNTLYLQMNSLRAEDTAVYYCARRYGTSYPDYGDANGFDPWGQGTLVTVSS
VL: B1 VL
B5: 2/99 VH17/VL2 (antibody, V domains shown)
VH: B2 VH with V70K
VL: B1 VL
B6: 2/99 VH13/VL2 (antibody, V domains shown)
VH: B3 VH with Q16E, H40P, A60N, F78V
VL: B1 VL
B7: 2/99 VH19/VL2 (antibody, V domains shown)
VH: B2 VH with Q2S, L3M, E15Q, V36I, P39H, N59A, V77F, P116Q
VL: B1 VL
B8: 2/99 VH8/VL2 (antibody, V domains shown)
VH: QQLVETGGGLIQPGGSLRLSCAASGFSLSSYAMSWVRQAPGKGLEWIGYIWSGGSTDYASWAKGRFTISKTSTTLYLQMNSLRAEDTAVYYCARRYGTSYPDYGDANGFDPWGQGTLVTVSS
VL: B1 VL
B9: 2/99 VH15/VL2 (antibody, V domains shown)
VH: B2 VH with P116Q
VL: B1 VL
B10: 2/99 VH12/VL2 (antibody, V domains shown)
VH: B3 VH with Q16E, H40P, A60N
VL: B1 VL
B11: 2/99 VH11/VL2 (antibody, V domains shown)
VH: B4 VH with V4L, T6S, I11V, I47V
VL: B1 VL
B12: 2/99 VH7/VL2 (antibody, V domains shown)
VH: B4 VH with D60S, S61W, V62A
VL: B1 VL
B13: 2/99 VH5/VL2 (antibody, V domains shown)
VH: B4 VH with Q2S, L3M, V4E, I47V, Q116P
VL: B1 VL

T1 sequence (P02786 89-760 limits assumed): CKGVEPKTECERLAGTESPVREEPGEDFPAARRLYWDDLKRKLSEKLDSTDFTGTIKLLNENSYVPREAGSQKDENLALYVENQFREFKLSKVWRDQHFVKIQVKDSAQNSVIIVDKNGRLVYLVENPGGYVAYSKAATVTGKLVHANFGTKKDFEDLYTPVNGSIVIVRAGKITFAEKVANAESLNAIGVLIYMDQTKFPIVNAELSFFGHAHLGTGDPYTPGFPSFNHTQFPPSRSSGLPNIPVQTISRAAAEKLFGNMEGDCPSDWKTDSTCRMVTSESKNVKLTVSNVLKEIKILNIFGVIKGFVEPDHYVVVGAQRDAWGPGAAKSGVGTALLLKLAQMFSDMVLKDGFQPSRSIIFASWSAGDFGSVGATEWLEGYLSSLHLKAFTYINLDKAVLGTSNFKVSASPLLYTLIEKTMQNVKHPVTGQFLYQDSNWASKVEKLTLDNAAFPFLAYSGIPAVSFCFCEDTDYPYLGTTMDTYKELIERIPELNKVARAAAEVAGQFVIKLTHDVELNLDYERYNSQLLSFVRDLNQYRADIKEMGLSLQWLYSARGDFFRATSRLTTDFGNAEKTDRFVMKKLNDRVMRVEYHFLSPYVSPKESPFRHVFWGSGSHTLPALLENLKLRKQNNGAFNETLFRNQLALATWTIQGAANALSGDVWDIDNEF

This assay has as its target T1, human transferrin receptor (recombinant, for surface plasmon resonance) (human, UniProt P02786 89-760).
T1 construct: also called huTfR; human transferrin receptor-biotinylated
The assay can be described thus: SPR 25C.
With B1, the koff (in general, a measure of how fast the partners let go of each other) was determined as 0.00275 s⁻¹.

In the case of B2, the off-rate constant (koff) came to 0.00197 s⁻¹. As for B3, the koff was 0.00489 s⁻¹. B4: the koff was 0.00187 s⁻¹. With B5, the koff came out at 0.00105 s⁻¹. Regarding B6, the koff came out at 0.00246 s⁻¹.

Consider B7, for which the koff amounted to 0.00769 s⁻¹.

As to B8, the koff was 0.00101 s⁻¹. On to B9, for which the koff is 0.00216 s⁻¹. On to B10, for which the off-rate (koff) came to 0.00635 s⁻¹. For the molecule B11, the koff came out at 0.00385 s⁻¹. On to B12, for which the koff turned out to be 0.00131 s⁻¹. As for B13, the koff was 0.00241 s⁻¹.
